According to the DeepSol protein solubility set:

assay: soluble on expression in E. coli; label from the status in PepcDB or PDB records

| Sequence | soluble on expression in E. coli |
| --- | --- |
| MKTHYRTIVLSDIHLGTSSSKAKEVSNFLKNHTCDTLLLNGDIIDGWQLQKYGKWKKSHTRFFRRVIKMTEQNKTKVYYLRGNHDDFLDTILPLSFGNIHIDREYIHQGATGKMYYVVHGDVFDTVTSQLKWIAKLGDVGYTFLLWLNKHYNNYRVKRGLPYYSLSQAVKQKVKTAVSYISDFEMQLADLARSRKCDGVICGHIHQPAIKEYNGIEYLNSGDWVETLSALVETIHGEWKLIYYNQAFDEDRDSTEDADDPLFVFENMARFSKDVTIYKPRYSAFNGMNPADNLATNNQ | not soluble |
| MSLEISASIIDISENALEQLGVDWRLHNSRFDLQTGNGTNTMLNNPGSLDSVATTAGAAAAIAATPAGGVLSAVIGGGSRYLMARISALQQTDQARITANPKVATLDNTEAVMDNRQNFYVPVAGYQSADLYAISAGVSLRVLPMVVMDGGTVRIRMNVHIEDGQITSQQVGNLPITSQSEIDTQALINEGDSLLIAGYSVEQQSKSVDAVPGLSKIPLVGALFRTDQTTGKRFQRMFLVTPRVITEGHHHHHH | not soluble |
| MSDHENTGENTSEYQYKQPPQKSIDELLNADKEDESLKVYKAKLLGQGTVIVDEKNPLRVIVRSVELLINGKTAQSFDLSDPAKLVNSDLSVSIKEGSNYRLSFAFHVQREITSGLHYKHKVKRSGITVENEKYMMGSYAPKLEIQEYKSPNEEAPSGMMHRGKYKVYSKITDDDNNVYLDWQWTLHITKE | not soluble |
| MILINKRAEKQDYQTILAIWEKSVIVTHDFLTAEDRQFYKEQIPLFLDNVELFLWFAGEEVIGFSGTSERELDMLFLDPVATGNGYGSQILGWLIENKRINLVDVNEQNENATRFYLKHGFVVSSRSDLDGFGKPYPILQLQLKERVNGV | soluble |
| MGSDKIHHHHHHMIKALLTVSTILVSSHALATDKPADKPWHNEKPTLSTINAPTKVMPMVCKQTQALAYLKELQSGKKDIYSVKSNDHGGKGANDSGWLTWRVDDPTNLIPCPKGGAADTEVGMCWKELNDEPTVIGLVRVAPGTAAPHYHREMECYYGLSGQGLTWAQERMQPFGAGDYIEIPSKAIHYTPNTYDDQDLIYMYWFPLDGKFSTFKYQWPKDVGPGEQLMFDFVPYTNSKTVRSGNDGYGWDVIQKSKK | not soluble |
| MADESETAVKPPAPPLPQMMEGNGNGHEHCSDCENEEDNSYNRGGLSPANDTGAKKKKKKQKKKKEKGSETDSAQDQPVKMNSLPAERIQEIQKAIELFSVGQGPAKTMEEASKRSYQFWDTQPVPKLGEVVNTHGPVEPDKDNIRQEPYTLPQGFTWDALDLGDRGVLKELYTLLNENYVEDDDNMFRFDYSPEFLLWALRPPGWLPQWHCGVRVVSSRKLVGFISAIPANIHIYDTEKKMVEINFLCVHKKLRSKRVAPVLIREITRRVHLEGIFQAVYTAGVVLPKPVGTCRYWHRSLNPRKLIEVKFSHLSRNMTMQRTMKLYRLPETPKTAGLRPMETKDIPVVHQLLTRYLKQFHLTPVMSQEEVEHWFYPQENIIDTFVVENANGEVTDFLSFYTLPSTIMNHPTHKSLKAAYSFYNVHTQTPLLDLMSDALVLAKMKGFDVFNALDLMENKTFLEKLKFGIGDGNLQYYLYNWKCPSMGAEKVGIVLQ | soluble |
| MSPRDVLDSIFAFPPNRDTLGGTSYLIVGNEGNILIDCPALDQTNLNFLRSHGGVRWLFLTHRGAIGRTAEIQQNYGCDILIQEQEAYLLPGLTVTTFTQEFAVTPTAKAIWTPGHSPGSSCLYYNHQGGVLFSGRHLLPNQKGEPVPLRTAKTFHWPRQIKSLQTILETLTPETLQYICPGANTGFLRGKRSIDTAYQRLASLDLKALLQTQPLILEHHHHHH | soluble |
| MTLNIQGIAASSGIAIAKAFRLENPEFNIEQKSITNEAAEIARLEAALEKAKTELEAIKDHAFAELGADKAAIFEAHLLVLNDPELVNPVKDKVNSEKVNAEFAMDEVASMFISMFENMDNEYMKERAADIRDVTKRVLAHLLGINFSNPGTNSEEVIIIAEDLTPSDTAQLNRKYAKGFTTDIGGRTSHSAIMARSMEIPAVVGTKVVMEKIQNGDIVIIDGLDGEVIVNPSEETLRSFEEKKAKFEEQKAEWAKLKDQATVTSDGHHVELVANIGTLNDVQGIIDNGGEGVGLYRTEFLYMGRDNLPTEEEQFEAYKAVLEGVKEGQPVVVRTLDIGGDKELPYLHLPKEMNPFLGYRAIRLCLDEQDVFRTQLRALLRASVYGNLKIMFPMIATLDEFRQAKAILLEEKAKLVEVGTTVSDSIEVGMMVEIPASAVLADQFAKEVDFFSIGTNDLIQYTMAADRMNEQVSYLYQPYNLSILRLVKMVIDAAHKEGKWAGMCGEMAGDSLAIPLLLGLGLDEFSMSATSILPARTQLSKLSKAEMETLAEKALMMSTAEEVVELVKSI | not soluble |
| MSLDSLGAINKIQDFLQKQEYKTLEYNLTTTEVVMENVTAFWEEGFGELFEKAKQNNNNRKTSNGDDSLFFSNFSLLGTPVLKDINFKIERGQLLAVAGSTGAGKTSLLMMIMGELEPSEGKIKHSGRISFCSQFSWIMPGTIKENIIFGVSYDEYRYRSVIKACQLEEDISKFAEKDNIVLGEGGITLSGGQRARISLARAVYKDADLYLLDSPFGYLDVLTEKEIFESCVCKLMANKTRILVTSKMEHLKKADKILILMKVAAIFMGHFQNSKIYSQTLAQNSWDVILSTNLVQKEEIQS | soluble |
| MTRAEVGLVWAQSTSGVIGRGGDIPWSVPEDLTRFKEVTMGHTVIMGRRTWESLPAKVRPLPGRRNVVVSRRPDFVAEGARVAGSLEAALAYAGSDPAPWVIGGAQIYLLALPHATRCEVTEIEIDLRRDDDDALAPALDDSWVGETGEWLASRSGLRYRFHSYRRD | soluble |
| MTGQNGQVARISPGKFRQLGPVNWLVAKLAARAVGAPQMHLFTTLGYRQYLFWTFAIYTGRLLHGRLPGVDTELVILRVAHLRSCEYELQHHRRMARRRGLDANTQATIFAWPDVPDGDGPRKVLSARQQALLQATDELIKDRTITAGTWERLATHLDPRLLIEFCLLATQYDAIAATITALAIPPDNPQ | soluble |
| MATTEQLANTTQKEPVIDLDQDSNMEIAHKIQNQTKRLPISEPANKNKNVTSKQNKETNRKTFEKSKRMATSTIQDRVLRTQKTRKDKESTTEKVNAILKKSAKQIKVREEEEGDDDLEDELTLYPSKRKMMVGSKNRKRTIKPNRDTIAEEQETDGEHGVKQRAFDPKQRHRQCPECLLLFSTPDKLKRHMKSHGDVPDVYCSLCNTPIKFKYNLRVHLEKCYDKMKLSLHDSMLSKVYPDFVRKLQEAAKNPVLPMPTLEGMPYEFTLKGVVGFDTSLDITKDLMLAKYEQKKQRELAGIDSDDSDELDYFDDFPDE | not soluble |
| MGSDKIHHHHHHMKRENLHQPFEISFSEFDESMLKEHDHTFFELVYILSGTGIQWINNNKFSYHGGHLFMITPGDSHSFEIHSTTKFIDIKFNDIYIHSAVFGTENIKRLEFILQHANHQPGCILRNRTDKLLVKPMIEAIIREYVNRNLYSKEIITQLINTIIIVVARNIAMFLPEQVNECSEEKSLGILQYIQTYIYQSEKIKTKAISQHFGISENYLGRYFKKHTNETMQQYILNYKLKLVENRLLHSEMRISEIVAELGFTDESHLNKLFKKYRGCSPTNFRKNNAV | not soluble |
| MSLAEGYQSEADLERELIDDLRRQGYEFLPAIKTPEAMLANVRVQLQALNDVQFSDGEWARFVETWLDKPSDGIVEKTRKIHDDYIHDFVFDDGRIQNIHLVDKKTLVRNKVQVIRQFVTTPALCATPPREGNFSGGEQLWDQFPSFGGVPVGRGGYNRYDVTILVNGLPLVQVELKRRGVAIREAFNQVHRYSKESFNSAHSLFKYLQLFVISNGTDTRYFANTTRRDKNSFDFTMHWAKADNTPIRDLKDFAATFFQKHTLLSVLLHYSVFDVSNTLLVMRPYQIAATERILWKIKSSHQAKTWSTPEGGGYIWHTTGSGKTLTSFKAARLGTELDFIDKVFFVVDRKDLDYQTMKEYQRFSPDSVNGSDSTAGLKRNLEKDDNRIIVTTIQKLNNLMKSEPDLPIYHKQVVFIFDECHRSQFGEAQKNLRKKFKRYLQFGFTGTPIFPENALGAETTASVFGRELHSYVITDAIRDEKVLKFKVDYNDVRPRFKAIETERDEKKLSAAENRQALLHPERIREITQYILTHYRQKTHRLQPGAKGFNALFAVSSVEAAKLYYEAFKTQQKDSAKPLKVATIFSYAANEAQDAVGDIADEGFEVSALNSSAKEFLNAAIADYNALFKTNFSVDSQGFQNYYRDLAKRVKGTDDSGKRLPADEQVDLLIVVGMFLTGFDAPTLNTLFVDKNLRYHGLLQAYSRTNRIFDATKTFGNIVTFRDLEQATIDAITLFGDKNTRNVVLEKSYREYMEGYTDALTGQARRGFVEVVQELQARFPDPAALEKEADKKAFVRLFGEYLRAENVLQNFDEFAALKALQSVNTGDPAAVEAFKAQHYLSDEDLAALQAIKLPPERTMQDYRSTYNDIRDWLRREQAGVEKEKSTIDWDDVVFEVDLLKSQEINLDYILELIFERNKETRSKAELVEEVRRVIRASLGHRAKESLVVDFINQTDLEQLAEGHHHHHH | soluble |
| MGSSHHHHHHGGTGENLYFQGGSGSSVTPTIPFKAWLKLHAKAICQALPLSLLIVVEARDLYYRATWDVAPVPPSKFEVGDVIAVCNRWYTLPTWSHVVYSWLSKVLLKSCWDDVGVISSVKNGTPHILYVDFHGVHEQPLATFLETRCPRGAAVRKLRRDEGVPSPSPAIADLFRKEVEMISVEPWFLFSASMRGGNEHKYYEFCVRMHEQRCKIRSMLQRRQSRPAIEAQQTSLKEMEVMRQHLAKFVEPVTHFHLYNGSLVASFFATYGLLDREMPSPSRYVPQDFAHTIPFLGATTLDEPIVFFRN | not soluble |
| MPYSSSGVGHNGFDKADLHIHTKCSDGLFTPEEIVHKAIHVGLKAISITDHDTVTGIDQAKPLALELGLELIPGVEMSSAYKGYDIHILGYFFDYQQSELKGYLDHCRLLRTERAERMVQKLAKMGVKIEIEQIIMKAQNGSVGRPHIAAVLQDEGFVKSFSEAFSKYLGSHSPAYVKSIETHPEEVIRLINEAGGLSFLAHPAQNVPDEILRQLISFGLDGLEIIHPSHDTYRQNYYREIANEYFLLFSGGSDYHGPKDHEDNFGQVWIPYEWVTKMKSRLAPAVKE | not soluble |
| MVLFTRFMLMGIAMPQISRTALVPYSAEQMYQLVNDVQSYPQFLPGCVGSRVLESSPAQMTAAVDVSKAGISKTFTTRNQLTRNQSILMHLVDGPFKKLIGGWKFTPLSPEACRIEFQLDFEFTNKLIELAFGRIFKELASNMVQAFTVRAKEVYRAGLEHHHHHH | not soluble |
| METQDVVAKHYDELASEDRATRKSSKILSLRNLNNWVKSVLIALHTRPGYSVLDLACGKGGDLQKWQSQQITQYVGCDISKESLKTAQQRYQQLKKCTFTAQFLCGDCFSCRLSRYLEPDRNFHIVSCQFSMHYAFSCEEKVRRLLENVTERLVAGGFFIGTIPDSNVLVRKLRASSGLEFGNEFYRVVFDDSSSKTFTKPFGIRYHFYLESSVLDIPEYLVVMPVFEKLAKGYGLELQLVMNFHEFITMYLSAGSPFISLFHRMNILQDGGLSPEFWDTAYLYTVFAMKKQGASPWLGLSPESISYVDNTSFERKVIVMMDDEELDSERITFVDKEWNEMIPKRIKLQK | soluble |
| HRCVALCIETRPDYCGEKEINQMLKLGATRVELGVQTIYNEILEFCKRGHTVEDTIKATQLLKDSGLKVSYHLMPGMPGSDMEMDKKMFKEIFENPDFKPDMVKIYPCLVIEGTELYEMWKRGEYKPYREEEAIEIISYAKSIMPKWV | not soluble |
